Patent US8357523B2, “Beta-glucosidase variant enzymes and related polynucleotides” (Codexis, Inc., priority 2009, dated 2013)

B1: CelA wildtype: wildtype Azospirillum irakense β-glucosidase (CelA) (SEQ ID NO: 4) (protein)
chain: STAIAQEGAAPAAILHPEKWPRPATQRLIDPAVEKRVDALLKQLSVEEKVGQVIQGDIGTITPEDLRKYPLGSILAGGNSGPNGDDRAPPKEWLDLADAFYRVSLEKRPGHTPIPVLFGIDAVHGHGNIGSATIFPHNIALGATHDPELLRRIGEVTAVEMAATGIDWTFAPALSVVRDDRWGRTYEGFSEDPEIVAAYSAAIVEGVQGKFGSKDFMAPGRIVASAKHFLADGGTDQGRDQGDARISEDELIRIHNAGYPPAIDAGVLTVMASFSSWQGIKHHGHKQLLTDVLKGQMGFNGFIVGDWNAHDQVPGCTKFNCPTSLIAGLDMYMAADSWKQLYENTLAQVKDGTIPMARLDDAVRRILRVKVLAGLFEKPAPKDRPGLPGLETLGSPEHRAVGREAVRKSLVLLKNDKGTLPLSPKARVLVAGDGADNIGKQSGGWTISWQGTGNRNDEFPGATSILGGIRDAVADAGGSVEFDVAGQYKTKPDVAIVVFGEEPYAEFQGDVETLEYQPDQKQDLALLKKLKDQGIPVVAVFLSGRPMWVNPELNASDAFVAAWLPGTEGGGVADVLFTDKAGKVQHDFAGKLSYSWPRTAAQTTVNRGDADYNPLFAYGYGLTYKDKSKVGTLPEESGVPAEARQNAGIYFRAGALRLPGRFL
B2: T2A + A5T + I14M + N79D + G127N + A143M + H145R + V159E + A198S + A207F + F211Y + I222A + S225C + Q508R + A3R + S73A + V177P + I2037-des[A647-L663] (protein)
chain: SARITQEGAAPAAMLHPEKWPRPATQRLIDPAVEKRVDALLKQLSVEEKVGQVIQGDIGTITPEDLRKYPLGAILAGGDSGPNGDDRAPPKEWLDLADAFYRVSLEKRPGHTPIPVLFGIDAVHGHNNIGSATIFPHNIALGMTRDPELLRRIGEVTAEEMAATGIDWTFAPALSVPRDDRWGRTYEGFSEDPEIVASYSAAYVEGFQGKYGSKDFMAPGRAVACAKHFLADGGTDQGRDQGDARISEDELIRIHNAGYPPAIDAGVLTVMASFSSWQGIKHHGHKQLLTDVLKGQMGFNGFIVGDWNAHDQVPGCTKFNCPTSLIAGLDMYMAADSWKQLYENTLAQVKDGTIPMARLDDAVRRILRVKVLAGLFEKPAPKDRPGLPGLETLGSPEHRAVGREAVRKSLVLLKNDKGTLPLSPKARVLVAGDGADNIGKQSGGWTISWQGTGNRNDEFPGATSILGGIRDAVADAGGSVEFDVAGQYKTKPDVAIVVFGEEPYAEFRGDVETLEYQPDQKQDLTLLKKLKDQGIPVVAVFLSGRPMWVNPELNASDAFVAAWLPGTEGGGVADVLFTDKAGKVQHDFAGKLSYSWPRTAAQTTVNRGDADYNPLFAYGYGLTYKDKSKVGTLPEESGVPAEARQN

Experiments:
Type in all cases: biochemical
[1] = Enzyme stability: residual activity on pNPG after pre-incubation at high temperature and low pH; details: residual activity on pNPG at pH 7, 30° C.
Method: Residual activity is determined by exposing the enzyme to stress conditions of elevated temperature for a period of time and then determining the β-glucosidase activity. The β-glucosidase activity of the enzyme exposed to stress conditions (“a”) is compared to that of a control in which the enzyme is not exposed to the stress conditions (“b”), and residual activity is equal to the ratio a/b. Exemplary conditions for determining thermostability are provided in Examples 9 and 13. In one embodiment the enzymes are exposed to stress conditions of 50° C. at pH 5.5 or 55° C. at pH 5.0 or 55° C. at pH 5.5, or 65° C. at pH 5.0 for about 1 hour, and assayed at 30° C., pH 7, for about 0.1 hour.
(§1) A colorimetric pNPG (p-nitrophenyl-(β-D-glucopyranoside)-based assay was used for measuring β-glucosidase activity. In a total volume of 100 μL, 20 μL clear media supernatant containing β-glucosidase enzyme was added to 4 mM pNPG (Sigma-Aldrich, Inc. St. Louis, Mo.) solution in 50 mM sodium phosphate buffer at pH6.5. The reactions were incubated at pH 6.5, 45° C. for 1 hour. The reaction mixture was quenched with 100 μL of 1M sodium carbonate pH 11 solution. The absorbance of the solution was measured at 405 nm to determine the conversion of pNPG to p-nitrophenol. The release of p-nitrophenol (ε=17,700 M−1 cm−1) was measured at 405 nm to calculate β-glucosidase activity. Detectable β-glucosidase activity was observed under high throughput screening conditions (pH 7, 50° C.).
Four CelA variants and wildtype CelA were characterized to determine their stabilities at high temperature (55° C.) and low pH (pH5.5) using the method of Example 5A. The samples containing various CelA variant enzymes were pre-incubated at pH 5.5, 55° C. for 0-6 hrs. The residual enzyme activity after the thermal challenge was measured using pNPG as substrate at pH 7, 30° C. for 1 hr. […] The mutations listed in the table are indicated relative to SEQ ID NO: 4, the wildtype CelA. These sequences included residues GTS prior to the N-terminus of SEQ ID NO: 4 (prepared as described in Example 1). […]

[2] = Activity profile at different temperatures and pH using cellobiose (10 g/L) as substrate
[3] = as above; remark: listed apart in the source
Method: β-glucosidase activity was also determined using a cellobiose assay, which used cellobiose as substrate. In a total volume of 100 μL, 25 μL clear media supernatant containing CelA enzyme was added to 10 g/L cellobiose (Fluka Cat. No. 22150, Sigma-Aldrich, Inc., St. Louis, Mo.) in 100 mM sodium phosphate buffer (pH 6-7) or sodium acetate buffer (pH 5-5.5). The reaction was incubated at 45-70° C. for an appropriate time (25 minutes to overnight depending on the enzyme concentration) while shaking. Glucose production was determined using an enzymatic glucose assay (K-GLUC, Megazyme, Ireland). 10 μl of each reaction was added to 190 μl GOPOD reagent (supplied as part of the K-GLUC assay kit). The reaction was incubated at 45° C. for 20 minutes and the absorbance of the solution was measured at 510 nm. The GOPOD reagent contains 50 mM Potassium phosphate buffer pH7.4, 0.011M p-hydroxybenzoic acid, 0.008% w/v sodium azide, glucose oxidase (>12,000 U/L), peroxidase (>650 U/L) and 80 mg/L 4-aminoantipyrine. The glucose oxidase enzyme in the reagent reacts with any glucose present in the sample and produces hydrogen peroxide which then reacts with the 4-aminoantipyrine to produce a quinoneimine dye in quantities proportionate with the amount of glucose present and can be measured spectrophotometrically at 510 nm. Detectable β-glucosidase activity was observed under high throughput screening conditions (i.e., pH 7, 50° C.).
The native CelA activity profile was investigated at different temperatures (40-55° C.) and pH (5.0-8.0) using cellobiose (10 g/L) as a substrate. The experimental and analytical procedures are described in Example 5.
The activity profiles for Variant Nos. 264, 366, 391, 463, and 529 were determined at different temperatures and pH using cellobiose (10 g/L) as a substrate. The experimental and analytical procedures are described in Example 5, incubating the variant with cellobiose at temperatures in the range of 45-80. The results are depicted in FIGS. 7-11. […] The temperature and pH profile for this variant is depicted in FIG. 7. […] The temperature and pH profile for this variant is depicted in FIG. 8. […] The temperature and pH profile for this variant is depicted in FIG. 9. […] (with the pH 6 optimum determined by extrapolation). The temperature and pH profile for this variant is depicted in FIG. 10. […] The temperature and pH profile for this variant is depicted in FIG. 11.

[4] = pNPG (p-nitrophenyl-β-D-glucopyranoside) assay of β-glucosidase activity; details: media supernatant of shake flask culture
Method: A single microbial colony of Bacillus megaterium containing the vector prepared in Example 1 with the CelA gene was inoculated into 3 ml Luria-Bertani (LB) Broth ([…]) containing 10 μg/mL tetracycline. Cells were grown overnight (at least 16 hrs) in an incubator at 37° C. with shaking at 250 rpm. […]
as §1, with “Detectable β-glucosidase activity was observed under high throughput screening conditions (pH 7, 50° C.).” left out

[5] = Glucose inhibition (glucose tolerance), cellobiose assay with cellobiose consumption determined by HPLC; details: pH 5, 55° C.; glucose concentration at which enzyme activity is 50% of the activity with no glucose

Molecule	% residual activity after 10 mins @ pH 5.5, 55° C. ([1]; pre-incubation 10 mins at pH 5.5, 55° C., 1 hr)	% residual activity after 1 hour @ pH 5.5, 55° C. ([1]; pre-incubation 1 hour at pH 5.5, 55° C.)	% residual activity after 6 hours @ pH 5.5, 55° C. ([1]; pre-incubation 6 hours at pH 5.5, 55° C., 1 hr)	CelA activity at pH 4 and 70° C. [2]	pH of optimum activity [3]	temperature of optimum activity [3]	activity using pNPG as substrate [4]	IC50 for glucose [5]
B1	0%	0%	0%	detectable	6.0 pH	47 °C	confirmed	–
B2	–	–	–	–	–	–	–	greater than 100 g/l
